Source: patent CN111153992A (BEIJING CHEST HOSPITAL CAPITAL MEDICAL UNIV; BEIJING …, dated 2020)
Changes are numbered by the printed parent chain.

T1: 结核分枝杆菌特异性重组蛋白MPT32 (Mycobacterium tuberculosis, UniProt P9WIR7 40-325)
T1 sequence (looked up): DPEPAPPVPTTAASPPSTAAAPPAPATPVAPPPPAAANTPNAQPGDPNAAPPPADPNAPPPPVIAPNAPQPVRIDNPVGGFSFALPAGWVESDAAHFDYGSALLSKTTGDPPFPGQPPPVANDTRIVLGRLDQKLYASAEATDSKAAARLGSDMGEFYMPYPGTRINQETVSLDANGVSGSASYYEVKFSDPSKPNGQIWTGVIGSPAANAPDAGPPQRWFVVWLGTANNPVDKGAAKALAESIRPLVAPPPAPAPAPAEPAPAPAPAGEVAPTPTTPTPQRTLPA

T2: 结核分枝杆菌特异性重组蛋白MPT64 (Mycobacterium tuberculosis, UniProt P9WIN9 24-228)
T2 sequence (looked up): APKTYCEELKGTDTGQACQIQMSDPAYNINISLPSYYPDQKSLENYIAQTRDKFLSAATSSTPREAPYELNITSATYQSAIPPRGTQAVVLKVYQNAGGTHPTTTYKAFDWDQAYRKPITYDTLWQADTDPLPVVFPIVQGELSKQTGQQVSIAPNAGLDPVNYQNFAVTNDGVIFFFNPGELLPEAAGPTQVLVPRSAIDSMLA

T3: 结核分枝杆菌特异性重组蛋白CFP10 (Mycobacterium tuberculosis, UniProt P9WNK5 1-100)
T3 sequence (looked up): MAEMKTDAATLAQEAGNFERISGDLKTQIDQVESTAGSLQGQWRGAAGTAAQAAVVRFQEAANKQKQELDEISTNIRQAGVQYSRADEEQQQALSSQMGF

T4: 结核分枝杆菌特异性重组蛋白EspC (Mycobacterium tuberculosis, UniProt P9WJD7 1-103)
T4 sequence (looked up): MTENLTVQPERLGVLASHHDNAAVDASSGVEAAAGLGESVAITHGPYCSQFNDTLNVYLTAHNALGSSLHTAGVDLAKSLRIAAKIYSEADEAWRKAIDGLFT

T5: 结核分枝杆菌特异性重组蛋白38KD (Mycobacterium tuberculosis, UniProt P9WGU1 24-374)
T5 sequence (looked up): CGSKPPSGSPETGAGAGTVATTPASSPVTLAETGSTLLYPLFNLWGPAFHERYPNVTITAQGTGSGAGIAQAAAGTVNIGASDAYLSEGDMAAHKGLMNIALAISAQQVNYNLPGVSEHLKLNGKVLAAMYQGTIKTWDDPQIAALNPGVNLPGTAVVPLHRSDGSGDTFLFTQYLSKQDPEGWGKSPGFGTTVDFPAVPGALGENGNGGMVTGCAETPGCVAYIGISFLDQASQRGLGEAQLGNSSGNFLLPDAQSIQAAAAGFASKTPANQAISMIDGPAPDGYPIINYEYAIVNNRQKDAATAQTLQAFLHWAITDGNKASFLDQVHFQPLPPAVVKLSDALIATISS

B1: BJRbL01 (antibody, V domains shown)
VH: QSVEESGGRLVTPGTSLTLTCTVSGFSLSNYDMGWVRQAPGKGLEWIGNIWSNGYTDYASWVNGRFTISKTSSTTMDLKMTSLTTEDMATYFCARGSSGYVGDIWGPGTLVTVSS
VL: DPVLTQTPASVEVAVGGTVTMNCQASHSVYGNNELSWYQQKPGQPPKLLVYKASTLASGVPSRFKGSGSGTQFTLTISDLECDDAAIYYCQGGYWGNRAFGGGTEVVVKG
notes: also called 兔抗LAM单克隆抗体 BJRbL01; 抗LAM抗体
B2: BJRbL03 (antibody, V domains shown)
VH: B1 VH with V3L, S29R, N30S, N49S, G54D, Y55F, I68V, T85S, M88T, A94V
VL: DPMLTQTASSVSAAVGGTVTINCQASQSVYGNNELSWYQQKPGQPPKLLIYKASTLASGVPSRFKASGSGTQFTLTISDLECDDAAIYYCQGGYWGNRAFGGGTKLEIKG
notes: also called 兔抗LAM单克隆抗体 BJRbL03; 抗LAM抗体

Tests used:
Test in all cases: indirect ELISA, recombinant protein coated on plate
结核分枝杆菌特异性重组蛋白Mtb81 = 结核分枝杆菌特异性重组蛋白Mtb81 (Mycobacterium tuberculosis, UniProt P9WK17 1-741)
Chain of 结核分枝杆菌特异性重组蛋白Mtb81 (P9WK17 whole entry): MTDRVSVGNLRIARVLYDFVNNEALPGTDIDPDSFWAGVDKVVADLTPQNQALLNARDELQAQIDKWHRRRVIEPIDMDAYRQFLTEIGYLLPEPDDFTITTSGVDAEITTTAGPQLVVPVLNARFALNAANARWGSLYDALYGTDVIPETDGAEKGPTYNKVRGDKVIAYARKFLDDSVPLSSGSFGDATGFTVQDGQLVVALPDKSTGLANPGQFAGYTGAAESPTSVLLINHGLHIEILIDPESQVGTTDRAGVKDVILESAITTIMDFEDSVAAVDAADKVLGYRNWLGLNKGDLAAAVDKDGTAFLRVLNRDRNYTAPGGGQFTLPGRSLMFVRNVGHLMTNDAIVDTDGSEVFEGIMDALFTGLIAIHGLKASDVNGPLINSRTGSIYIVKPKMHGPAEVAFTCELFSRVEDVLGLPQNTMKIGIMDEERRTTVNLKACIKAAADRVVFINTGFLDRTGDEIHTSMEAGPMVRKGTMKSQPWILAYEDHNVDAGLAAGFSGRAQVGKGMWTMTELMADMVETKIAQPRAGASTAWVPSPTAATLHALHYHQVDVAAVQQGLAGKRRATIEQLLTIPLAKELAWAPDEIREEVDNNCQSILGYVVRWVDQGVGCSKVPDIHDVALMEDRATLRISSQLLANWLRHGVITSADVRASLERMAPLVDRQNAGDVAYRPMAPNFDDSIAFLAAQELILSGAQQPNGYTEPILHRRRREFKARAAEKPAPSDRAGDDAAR

结核分枝杆菌特异性重组蛋白MPT32 = molecular target: T1, 结核分枝杆菌特异性重组蛋白MPT32
结核分枝杆菌特异性重组蛋白MPT64 = molecular target: T2, 结核分枝杆菌特异性重组蛋白MPT64
结核分枝杆菌特异性重组蛋白CFP10 = molecular target: T3, 结核分枝杆菌特异性重组蛋白CFP10
结核分枝杆菌特异性重组蛋白EspC = molecular target: T4, 结核分枝杆菌特异性重组蛋白EspC
结核分枝杆菌特异性重组蛋白38KD = molecular target: T5, 结核分枝杆菌特异性重组蛋白38KD

Row | Binder | binding result (结核分枝杆菌特异性重组蛋白Mtb81) | binding result (结核分枝杆菌特异性重组蛋白MPT32) | binding result (结核分枝杆菌特异性重组蛋白MPT64) | binding result (结核分枝杆菌特异性重组蛋白CFP10) | binding result (结核分枝杆菌特异性重组蛋白EspC) | binding result (结核分枝杆菌特异性重组蛋白38KD)
1 | B1 | no binding (tested: protein coated at 5μg/ml) | no binding (tested: protein coated at 5μg/ml) | no binding (tested: protein coated at 5μg/ml) | no binding (tested: protein coated at 5μg/ml) | no binding (tested: protein coated at 5μg/ml) | no binding (tested: protein coated at 5μg/ml)
2 | B2 | no binding (tested: protein coated at 5μg/ml) | no binding (tested: protein coated at 5μg/ml) | no binding (tested: protein coated at 5μg/ml) | no binding (tested: protein coated at 5μg/ml) | no binding (tested: protein coated at 5μg/ml) | no binding (tested: protein coated at 5μg/ml)
